Test results reported in patent US9259479B2, “Treatment for comorbid diabetes with chronic kidney disease” (Eli Lilly and Company, priority 2012, dated 2016).
Where two headings read alike, the source gives them in different places.

Settings: rat, in vivo
Description: To induce diabetes, 10-week old male Harlan Sprague Dawley rats (Harlan, Indianapolis, Ind., USA) 250-280 g body weight, are dosed intravenously (IV) via tail vein with 45 mg/kg streptozotocin (STZ) in 0.5 M citric acid, pH 4.5, three days prior to study. […] Graphical and noncompartmental PK analyses are performed using SigmaPlot v11 (Systsat Software, Inc., San Jose, Calif.) and WinNonlin® Professional v5.3 (Pharsight®, St Louis, Mo., USA), respectively.

In the case of PEG20kDa-LysB29 human insulin, the Tmax (male, Harlan Sprague Dawley, sc) is reported as 12 ± 0 h, the CL/F (male, Sprague Dawley, sc) is reported as 1.13 ± 0.12 mL/min/kg and the “PK profile of the two molecules compared” value is reported as “statistically similar”. It also gave a CL/F (sc) of 1.67 ± 0.33 mL/min/kg and a Cmax (sc, 93 nmol/kg) of 41.1 ± 6.3 nM.
